In the experiment the target is T1, GST-tagged PTP1B, full length (UniProt P18031 1-435).
T1 construct: protein tyrosine phosphatase PTP1B (PTPN1), full-length cDNA subcloned into pGEX-4T1; The cDNA probably comes from pJ3H PTP1B (Addgene 8601); also called GST-PTP1B; source: E. coli, purified (glutathione resin)
T1 sequence (looked up): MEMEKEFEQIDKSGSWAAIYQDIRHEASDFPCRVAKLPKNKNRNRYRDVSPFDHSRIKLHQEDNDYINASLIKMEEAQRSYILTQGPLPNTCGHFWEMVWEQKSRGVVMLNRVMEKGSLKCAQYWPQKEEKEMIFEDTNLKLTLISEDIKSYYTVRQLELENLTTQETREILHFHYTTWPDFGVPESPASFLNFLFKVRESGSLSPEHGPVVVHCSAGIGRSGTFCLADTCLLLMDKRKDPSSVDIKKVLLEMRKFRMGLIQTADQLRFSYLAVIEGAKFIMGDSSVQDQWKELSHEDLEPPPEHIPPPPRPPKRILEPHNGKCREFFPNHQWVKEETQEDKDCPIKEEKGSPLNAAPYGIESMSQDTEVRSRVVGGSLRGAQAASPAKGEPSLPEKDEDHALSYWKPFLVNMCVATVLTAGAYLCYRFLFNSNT
Kind of experiment: pull-down; GST pull-down with purified proteins from E. coli: His-PDL1-CT / MBP-PDL1-CT (0.5 μg) and 0.5 μg GST or GST-fusion proteins. The settings on record: both partners purified.

B1: MBP-tagged PD-L1 cytoplasmic domain (domain or fragment, human, UniProt Q9NZQ7 262-290, looked up)
chain: RKGRMMDVKKCGIQDTNSKKQSDTHLEET
notes: PD-L1 cytoplasmic domain, human, amino acids 262-290, subcloned into pET-His6 (Addgene plasmid 29656; named in the acknowledgements as PET His6 MBP TEV LIC cloning vector); The results and legend call it MBP-PDL1-CT, the methods of the pull-down His-PDL1-CT; also called MBP-PDL1-CT; His-PDL1-CT; source: E. coli, purified (His resin)
Consider B1, for which the binding result is “binds”.
